Experimental data as given in patent publication US20230192902A1 (KENJOCKETY BIOTECHNOLOGY, published 2023).

Target: T1, human ABCG2 (human, UniProt Q9UNQ0 1-655)
T1 construct: also called CD388; BCRP
T1 sequence: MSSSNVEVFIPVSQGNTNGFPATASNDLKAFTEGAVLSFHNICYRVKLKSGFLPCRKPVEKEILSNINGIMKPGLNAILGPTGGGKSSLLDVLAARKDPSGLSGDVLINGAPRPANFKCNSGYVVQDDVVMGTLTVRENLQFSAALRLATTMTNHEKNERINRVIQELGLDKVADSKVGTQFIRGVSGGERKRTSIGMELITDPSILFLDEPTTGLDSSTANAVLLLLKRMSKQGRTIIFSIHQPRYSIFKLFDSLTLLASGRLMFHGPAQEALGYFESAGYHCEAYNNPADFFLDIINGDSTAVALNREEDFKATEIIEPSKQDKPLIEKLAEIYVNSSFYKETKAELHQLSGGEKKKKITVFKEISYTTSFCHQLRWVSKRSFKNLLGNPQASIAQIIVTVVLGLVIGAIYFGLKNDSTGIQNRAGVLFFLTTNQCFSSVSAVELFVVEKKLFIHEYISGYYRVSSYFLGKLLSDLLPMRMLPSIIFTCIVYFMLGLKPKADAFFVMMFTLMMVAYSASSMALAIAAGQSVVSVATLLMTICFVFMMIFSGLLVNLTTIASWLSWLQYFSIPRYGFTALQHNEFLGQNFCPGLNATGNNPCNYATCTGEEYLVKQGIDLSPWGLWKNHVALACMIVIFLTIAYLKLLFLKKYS
Assay: flow cytometry on 293T cells stably expressing human ABCG2

B1: anti-ABCG2 antibody 5D3 (antibody, V domains shown)
VH: QVQLQESGPGLVKPSQSLSLTCTVTGFSITSDYAWNWIRQFPGKKLEWMGYINFDGGTTYNPSLRGRISITRDTSKNQFFLQLRSVTPEDTATYYCATFYGAKGTLDYWGQGTSVTVSS
VL: DIVLTQSPSSFSVSLGDRVTISCKASGYILNRLAWYQQKPGNAPRLLISGATSLETGFPSRFSGTGSGKDYTLSISSLQTEDVGTYYCQQYWSTPWTFGGGTKLEIR
**Q.** Does B1 bind?
**A.** Result: binds
